Numbered stars: 1 amine (or outer) side, 2 acyl side, 3 side chain; on linkers, the order of the positions; unused ones are H or OH. Bridge positions count the residues as written; N and C are the ends. Side chains are listed from the residue outwards. Ends that are not written are not given here. * marks the point of attachment. C20 diacid = O=C(O)CCCCCCCCCCCCCCCCCCC(=O)*; γGlu = O=C(O)[C@H](CCC(=O)[*:2])N[*:1]; AEEA = NCCOCCOCC(=O)O
T1: human calcitonin receptor (human, UniProt P30988 25-474)
T1 construct: whole, on cells; Used as cell membranes prepared from the transfected BHK cells (Assay VII), not as intact cells; also called hCTR; hCT
T1 sequence (looked up): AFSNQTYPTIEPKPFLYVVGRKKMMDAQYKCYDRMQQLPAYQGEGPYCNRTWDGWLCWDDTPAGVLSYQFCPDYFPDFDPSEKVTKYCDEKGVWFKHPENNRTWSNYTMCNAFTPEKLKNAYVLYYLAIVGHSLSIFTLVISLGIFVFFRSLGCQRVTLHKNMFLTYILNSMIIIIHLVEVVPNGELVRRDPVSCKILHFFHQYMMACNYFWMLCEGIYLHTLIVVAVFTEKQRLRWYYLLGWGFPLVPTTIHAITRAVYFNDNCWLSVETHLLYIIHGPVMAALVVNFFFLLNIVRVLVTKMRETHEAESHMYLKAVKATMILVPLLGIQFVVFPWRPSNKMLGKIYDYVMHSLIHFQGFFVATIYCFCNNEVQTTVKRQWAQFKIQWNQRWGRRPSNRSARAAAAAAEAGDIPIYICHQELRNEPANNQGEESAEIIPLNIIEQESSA

B1: N^ε-[(4S)-4-carboxy-4-(19-carboxynonadecanoylamino)butanoyl]Lys[Arg1,Arg17,Pro21,Pro27,His35]-h-amylin (peptide)
peptide: K([γGlu-C20 diacid])RCNTATCATQRLANFLRHSSPNFGAIPSSTNVGSHTY-NH2
modifications: disulfide 3-8; N-terminus assumed
SMILES: CC[C@H](C)[C@H](NC(=O)[C@H](C)NC(=O)CNC(=O)[C@H](Cc1ccccc1)NC(=O)[C@H](CC(N)=O)NC(=O)[C@@H]1CCCN1C(=O)[C@H](CO)NC(=O)[C@H](CO)NC(=O)[C@H](Cc1c[nH]cn1)NC(=O)[C@H](CCCNC(=N)N)NC(=O)[C@H](CC(C)C)NC(=O)[C@H](Cc1ccccc1)NC(=O)[C@H](CC(N)=O)NC(=O)[C@H](C)NC(=O)[C@H](CC(C)C)NC(=O)[C@H](CCCNC(=N)N)NC(=O)[C@H](CCC(N)=O)NC(=O)[C@@H](NC(=O)[C@H](C)NC(=O)[C@@H]1CSSC[C@H](NC(=O)[C@H](CCCNC(=N)N)NC(=O)[C@@H](N)CCCCNC(=O)CC[C@H](NC(=O)CCCCCCCCCCCCCCCCCCC(=O)O)C(=O)O)C(=O)N[C@@H](CC(N)=O)C(=O)N[C@@H]([C@@H](C)O)C(=O)N[C@@H](C)C(=O)N[C@@H]([C@@H](C)O)C(=O)N1)[C@@H](C)O)C(=O)N1CCC[C@H]1C(=O)N[C@@H](CO)C(=O)N[C@@H](CO)C(=O)N[C@H](C(=O)N[C@@H](CC(N)=O)C(=O)N[C@H](C(=O)NCC(=O)N[C@@H](CO)C(=O)N[C@@H](Cc1c[nH]cn1)C(=O)N[C@H](C(=O)N[C@@H](Cc1ccc(O)cc1)C(N)=O)[C@@H](C)O)C(C)C)[C@@H](C)O
notes: also called compound 44
B2: N^-1-[(4S)-4-carboxy-4-(19-carboxynonadecanoylamino)butanoyl]-Gly[Arg1,Arg17,Pro21,Pro27]-h-amylin (peptide)
peptide: {C20 diacid-γGlu}-GRCNTATCATQRLANFLRHSSPNFGAIPSSTNVGSNTY-NH2
modifications: disulfide 3-8
SMILES: CC[C@H](C)[C@H](NC(=O)[C@H](C)NC(=O)CNC(=O)[C@H](Cc1ccccc1)NC(=O)[C@H](CC(N)=O)NC(=O)[C@@H]1CCCN1C(=O)[C@H](CO)NC(=O)[C@H](CO)NC(=O)[C@H](Cc1c[nH]cn1)NC(=O)[C@H](CCCNC(=N)N)NC(=O)[C@H](CC(C)C)NC(=O)[C@H](Cc1ccccc1)NC(=O)[C@H](CC(N)=O)NC(=O)[C@H](C)NC(=O)[C@H](CC(C)C)NC(=O)[C@H](CCCNC(=N)N)NC(=O)[C@H](CCC(N)=O)NC(=O)[C@@H](NC(=O)[C@H](C)NC(=O)[C@@H]1CSSC[C@H](NC(=O)[C@H](CCCNC(=N)N)NC(=O)CNC(=O)CC[C@H](NC(=O)CCCCCCCCCCCCCCCCCCC(=O)O)C(=O)O)C(=O)N[C@@H](CC(N)=O)C(=O)N[C@@H]([C@@H](C)O)C(=O)N[C@@H](C)C(=O)N[C@@H]([C@@H](C)O)C(=O)N1)[C@@H](C)O)C(=O)N1CCC[C@H]1C(=O)N[C@@H](CO)C(=O)N[C@@H](CO)C(=O)N[C@H](C(=O)N[C@@H](CC(N)=O)C(=O)N[C@H](C(=O)NCC(=O)N[C@@H](CO)C(=O)N[C@@H](CC(N)=O)C(=O)N[C@H](C(=O)N[C@@H](Cc1ccc(O)cc1)C(N)=O)[C@@H](C)O)C(C)C)[C@@H](C)O
notes: also called compound 46
B3: N^-1-[(4S)-4-carboxy-4-(19-carboxynonadecanoylamino)butanoyl]-Gly[Arg1,Arg17,Pro21,Pro27,His35]-h-amylin (peptide)
peptide: {C20 diacid-γGlu}-GRCNTATCATQRLANFLRHSSPNFGAIPSSTNVGSHTY-NH2
modifications: disulfide 3-8
SMILES: CC[C@H](C)[C@H](NC(=O)[C@H](C)NC(=O)CNC(=O)[C@H](Cc1ccccc1)NC(=O)[C@H](CC(N)=O)NC(=O)[C@@H]1CCCN1C(=O)[C@H](CO)NC(=O)[C@H](CO)NC(=O)[C@H](Cc1c[nH]cn1)NC(=O)[C@H](CCCNC(=N)N)NC(=O)[C@H](CC(C)C)NC(=O)[C@H](Cc1ccccc1)NC(=O)[C@H](CC(N)=O)NC(=O)[C@H](C)NC(=O)[C@H](CC(C)C)NC(=O)[C@H](CCCNC(=N)N)NC(=O)[C@H](CCC(N)=O)NC(=O)[C@@H](NC(=O)[C@H](C)NC(=O)[C@@H]1CSSC[C@H](NC(=O)[C@H](CCCNC(=N)N)NC(=O)CNC(=O)CC[C@H](NC(=O)CCCCCCCCCCCCCCCCCCC(=O)O)C(=O)O)C(=O)N[C@@H](CC(N)=O)C(=O)N[C@@H]([C@@H](C)O)C(=O)N[C@@H](C)C(=O)N[C@@H]([C@@H](C)O)C(=O)N1)[C@@H](C)O)C(=O)N1CCC[C@H]1C(=O)N[C@@H](CO)C(=O)N[C@@H](CO)C(=O)N[C@H](C(=O)N[C@@H](CC(N)=O)C(=O)N[C@H](C(=O)NCC(=O)N[C@@H](CO)C(=O)N[C@@H](Cc1c[nH]cn1)C(=O)N[C@H](C(=O)N[C@@H](Cc1ccc(O)cc1)C(N)=O)[C@@H](C)O)C(C)C)[C@@H](C)O
notes: also called compound 47
B4: N^ε1-[2-[2-[2-[[(4S)-4-carboxy-4-(19-carboxynonadecanoylamino)butanoyl]amino]ethoxy]ethoxy]acetyl]-[Arg17,Pro21,Pro27]-h-amylin (peptide)
peptide: K([AEEA-γGlu-C20 diacid])CNTATCATQRLANFLRHSSPNFGAIPSSTNVGSNTY-NH2
modifications: disulfide 2-7; N-terminus assumed
SMILES: CC[C@H](C)[C@H](NC(=O)[C@H](C)NC(=O)CNC(=O)[C@H](Cc1ccccc1)NC(=O)[C@H](CC(N)=O)NC(=O)[C@@H]1CCCN1C(=O)[C@H](CO)NC(=O)[C@H](CO)NC(=O)[C@H](Cc1c[nH]cn1)NC(=O)[C@H](CCCNC(=N)N)NC(=O)[C@H](CC(C)C)NC(=O)[C@H](Cc1ccccc1)NC(=O)[C@H](CC(N)=O)NC(=O)[C@H](C)NC(=O)[C@H](CC(C)C)NC(=O)[C@H](CCCNC(=N)N)NC(=O)[C@H](CCC(N)=O)NC(=O)[C@@H](NC(=O)[C@H](C)NC(=O)[C@@H]1CSSC[C@H](NC(=O)[C@@H](N)CCCCNC(=O)COCCOCCNC(=O)CC[C@H](NC(=O)CCCCCCCCCCCCCCCCCCC(=O)O)C(=O)O)C(=O)N[C@@H](CC(N)=O)C(=O)N[C@@H]([C@@H](C)O)C(=O)N[C@@H](C)C(=O)N[C@@H]([C@@H](C)O)C(=O)N1)[C@@H](C)O)C(=O)N1CCC[C@H]1C(=O)N[C@@H](CO)C(=O)N[C@@H](CO)C(=O)N[C@H](C(=O)N[C@@H](CC(N)=O)C(=O)N[C@H](C(=O)NCC(=O)N[C@@H](CO)C(=O)N[C@@H](CC(N)=O)C(=O)N[C@H](C(=O)N[C@@H](Cc1ccc(O)cc1)C(N)=O)[C@@H](C)O)C(C)C)[C@@H](C)O
notes: also called compound 41
B5: N^ε1-[2-[2-[2-(19-carboxynonadecanoylamino)ethoxy]ethoxy]acetyl]-[Arg17,Pro21,Pro27]-h-amylin (peptide)
peptide: K([AEEA-C20 diacid])CNTATCATQRLANFLRHSSPNFGAIPSSTNVGSNTY-NH2
modifications: disulfide 2-7; N-terminus assumed
SMILES: CC[C@H](C)[C@H](NC(=O)[C@H](C)NC(=O)CNC(=O)[C@H](Cc1ccccc1)NC(=O)[C@H](CC(N)=O)NC(=O)[C@@H]1CCCN1C(=O)[C@H](CO)NC(=O)[C@H](CO)NC(=O)[C@H](Cc1c[nH]cn1)NC(=O)[C@H](CCCNC(=N)N)NC(=O)[C@H](CC(C)C)NC(=O)[C@H](Cc1ccccc1)NC(=O)[C@H](CC(N)=O)NC(=O)[C@H](C)NC(=O)[C@H](CC(C)C)NC(=O)[C@H](CCCNC(=N)N)NC(=O)[C@H](CCC(N)=O)NC(=O)[C@@H](NC(=O)[C@H](C)NC(=O)[C@@H]1CSSC[C@H](NC(=O)[C@@H](N)CCCCNC(=O)COCCOCCNC(=O)CCCCCCCCCCCCCCCCCCC(=O)O)C(=O)N[C@@H](CC(N)=O)C(=O)N[C@@H]([C@@H](C)O)C(=O)N[C@@H](C)C(=O)N[C@@H]([C@@H](C)O)C(=O)N1)[C@@H](C)O)C(=O)N1CCC[C@H]1C(=O)N[C@@H](CO)C(=O)N[C@@H](CO)C(=O)N[C@H](C(=O)N[C@@H](CC(N)=O)C(=O)N[C@H](C(=O)NCC(=O)N[C@@H](CO)C(=O)N[C@@H](CC(N)=O)C(=O)N[C@H](C(=O)N[C@@H](Cc1ccc(O)cc1)C(N)=O)[C@@H](C)O)C(C)C)[C@@H](C)O
notes: also called compound 43

target: T1, human calcitonin receptor; test: SPA competition against 125I-calcitonin, membranes with human calcitonin receptor (Assay VII)
Summary of the method: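 BHK hCTR membranes 35 ng/μL + SPA beads 0.05 mg/well; buffer 50 mM Hepes pH 7.4, 1 mM CaCl2, 5 mM MgCl₂, 0.1% OA, 0.02% Tween20. 120 min, 25° C., shaking. Scintillation count; IC50 by one-site binding competition.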

| IC50 [nM] | Binder |
| --- | --- |
| 4.87 | B1 |
| 9.53 | B2 |
| 15.5 | B3 |
| 21.3 | B4 |
| 2.64 | B5 |
